These are literature values, as cited in PMC7850986.

One data set concerns the target IFNAR2 (Homo sapiens) (UniProt P48551).
A further data set concerns the target IFNAR1 (Homo sapiens) (UniProt P17181).
UniProt P17181, sequence (P17181 28-436): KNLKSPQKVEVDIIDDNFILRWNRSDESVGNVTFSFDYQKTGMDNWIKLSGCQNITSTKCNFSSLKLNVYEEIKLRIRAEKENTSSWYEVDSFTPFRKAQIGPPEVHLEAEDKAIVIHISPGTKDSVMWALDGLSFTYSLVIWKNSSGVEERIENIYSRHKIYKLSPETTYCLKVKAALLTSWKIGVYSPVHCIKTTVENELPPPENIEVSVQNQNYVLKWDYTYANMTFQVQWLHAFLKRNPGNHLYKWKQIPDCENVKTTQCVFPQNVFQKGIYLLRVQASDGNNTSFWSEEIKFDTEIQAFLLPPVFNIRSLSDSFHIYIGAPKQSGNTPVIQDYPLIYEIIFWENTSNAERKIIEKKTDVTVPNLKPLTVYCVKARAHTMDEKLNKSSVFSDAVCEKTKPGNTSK

UniProt P48551, sequence (P48551 27-243): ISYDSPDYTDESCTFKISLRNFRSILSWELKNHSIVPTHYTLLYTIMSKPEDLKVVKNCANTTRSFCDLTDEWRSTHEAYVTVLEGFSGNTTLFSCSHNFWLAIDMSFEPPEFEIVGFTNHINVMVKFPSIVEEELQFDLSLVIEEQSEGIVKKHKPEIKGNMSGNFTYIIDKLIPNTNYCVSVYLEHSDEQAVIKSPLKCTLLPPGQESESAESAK

As usually defined, the Kd is the concentration at which binding is half-saturated. Turning to IFNβ (from UniProt P01574), the results for the Kd with IFNAR2 (Homo sapiens) and with IFNAR1 (Homo sapiens) were 0.0001 µM and 0.1 µM, respectively.
